Our source for the Kd and Notch1 activation (fluorescent Notch1 reporter cells, co-culture) values is patent US20220348617A1.

Assay [1] deals with Notch2 EGF domains 6-13 (human) (UniProt Q04721). In words: SPR; N-EGF3. Particulars: ligand.
The target in assay [2] is Notch1 EGF domains 6-13 (human) (UniProt P46531). In words: SPR; N-EGF3. Particulars: ligand.
In assay [3] the target is Notch 3 EGF domains 5-12 (human) (UniProt Q9UM47). As to the kind of experiment: SPR; N-EGF3. Particulars: ligand.
Notch 3 EGF domains 5-12 (human), sequence (Q9UM47 197-505): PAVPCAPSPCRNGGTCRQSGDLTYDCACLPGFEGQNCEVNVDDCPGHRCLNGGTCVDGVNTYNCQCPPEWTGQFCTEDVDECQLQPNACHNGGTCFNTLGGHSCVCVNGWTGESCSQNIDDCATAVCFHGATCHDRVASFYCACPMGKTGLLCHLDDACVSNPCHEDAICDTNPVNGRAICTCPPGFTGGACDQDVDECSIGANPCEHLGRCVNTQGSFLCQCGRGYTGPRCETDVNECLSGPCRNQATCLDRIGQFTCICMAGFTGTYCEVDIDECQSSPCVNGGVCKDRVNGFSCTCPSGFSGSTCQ
Assay [4] addresses Notch2 EGF domains 6-13 (human) (UniProt Q04721). In words: SPR. Particulars: ligand.
In assay [5] the target is Notch1 EGF domains 6-13 (human) (UniProt P46531). As to the kind of experiment: SPR. Particulars: ligand.
Assay [6] concerns the target Notch 3 EGF domains 5-12 (human) (UniProt Q9UM47). In words: SPR. Particulars: ligand.
In assay [7] the target is Notch1 on the fluorescent Notch1 reporter cell line (CHO^N1). As to the kind of experiment: cell-based or functional assay.

Notch2 EGF domains 6-13 (human), sequence (Q04721 221-530): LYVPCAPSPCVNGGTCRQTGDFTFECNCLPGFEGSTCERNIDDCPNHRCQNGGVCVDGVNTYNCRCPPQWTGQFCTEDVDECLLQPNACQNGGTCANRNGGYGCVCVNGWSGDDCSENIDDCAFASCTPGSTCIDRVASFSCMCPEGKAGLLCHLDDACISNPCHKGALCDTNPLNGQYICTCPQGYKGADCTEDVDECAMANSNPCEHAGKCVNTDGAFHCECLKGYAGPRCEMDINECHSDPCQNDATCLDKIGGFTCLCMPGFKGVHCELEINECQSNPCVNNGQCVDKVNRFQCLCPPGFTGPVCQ
Notch1 EGF domains 6-13 (human), sequence (P46531 218-526): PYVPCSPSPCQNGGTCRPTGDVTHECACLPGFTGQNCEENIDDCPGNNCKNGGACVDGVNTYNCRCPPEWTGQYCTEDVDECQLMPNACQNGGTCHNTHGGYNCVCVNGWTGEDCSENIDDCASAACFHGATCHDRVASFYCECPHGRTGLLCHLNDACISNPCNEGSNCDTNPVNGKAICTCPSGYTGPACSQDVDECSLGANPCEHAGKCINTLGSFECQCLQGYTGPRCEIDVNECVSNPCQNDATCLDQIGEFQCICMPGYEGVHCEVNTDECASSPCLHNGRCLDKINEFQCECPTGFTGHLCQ

In general, Kd refers to the concentration at which binding is half-saturated. Read a low Kd as higher affinity. For “E12 human DLL4 (from UniProt Q9NR61 27-322)”, the Kd came out at 244 nM in assay [1]; 103 nM in assay [2]; 122 nM in assay [3]; 750 nM in assay [4]; 450 nM in assay [5]; 470 nM in assay [6].

Take “N3a.5_E12 human DLL4 (from UniProt Q9NR61 27-322)”: the Kd in assay [4] turned out to be 7.4 nM; in assay [5], 2 nM; in assay [6], 4.7 nM.

Consider “N3a.8_E12 human DLL4 (from UniProt Q9NR61 27-322)”, for which the dissociation constant Kd in assay [4] was 15.3 nM; in assay [5] it was 4.2 nM; in assay [6] it was 7.2 nM.

In the case of “wild-type human DLL4 expressed on 293T cells (from UniProt Q9NR61 27-685) (ligand)”, the Notch1 activation (fluorescent Notch1 reporter cells, co-culture) in assay [7] was determined as 100%.
